Reference: US20130064834A1 (published 2013)

T1: Chimeric protein #1 (mPro-hCat-mC-term-mmh) (mouse; human, UniProt Q80W65 35-694)
T1 chain: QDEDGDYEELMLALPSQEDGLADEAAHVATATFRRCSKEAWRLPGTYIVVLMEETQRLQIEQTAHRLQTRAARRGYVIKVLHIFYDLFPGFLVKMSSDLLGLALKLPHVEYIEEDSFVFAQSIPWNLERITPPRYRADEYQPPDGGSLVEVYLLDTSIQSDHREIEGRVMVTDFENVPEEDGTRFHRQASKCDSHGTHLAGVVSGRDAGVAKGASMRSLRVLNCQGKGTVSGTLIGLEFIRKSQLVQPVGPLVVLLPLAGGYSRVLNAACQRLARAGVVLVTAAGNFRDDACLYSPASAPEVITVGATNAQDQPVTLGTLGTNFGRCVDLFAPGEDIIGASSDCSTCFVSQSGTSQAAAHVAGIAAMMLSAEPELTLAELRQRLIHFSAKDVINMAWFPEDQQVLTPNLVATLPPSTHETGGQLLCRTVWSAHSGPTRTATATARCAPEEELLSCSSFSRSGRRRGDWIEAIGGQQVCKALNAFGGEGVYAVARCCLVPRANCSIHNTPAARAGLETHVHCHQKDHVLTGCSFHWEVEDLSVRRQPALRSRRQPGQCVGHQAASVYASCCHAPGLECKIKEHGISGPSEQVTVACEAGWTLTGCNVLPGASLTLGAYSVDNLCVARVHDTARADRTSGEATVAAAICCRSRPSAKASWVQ

T2: Chimeric protein #3 (mPro-mCat-hC-term-mmh) (mouse; human)
T2 chain: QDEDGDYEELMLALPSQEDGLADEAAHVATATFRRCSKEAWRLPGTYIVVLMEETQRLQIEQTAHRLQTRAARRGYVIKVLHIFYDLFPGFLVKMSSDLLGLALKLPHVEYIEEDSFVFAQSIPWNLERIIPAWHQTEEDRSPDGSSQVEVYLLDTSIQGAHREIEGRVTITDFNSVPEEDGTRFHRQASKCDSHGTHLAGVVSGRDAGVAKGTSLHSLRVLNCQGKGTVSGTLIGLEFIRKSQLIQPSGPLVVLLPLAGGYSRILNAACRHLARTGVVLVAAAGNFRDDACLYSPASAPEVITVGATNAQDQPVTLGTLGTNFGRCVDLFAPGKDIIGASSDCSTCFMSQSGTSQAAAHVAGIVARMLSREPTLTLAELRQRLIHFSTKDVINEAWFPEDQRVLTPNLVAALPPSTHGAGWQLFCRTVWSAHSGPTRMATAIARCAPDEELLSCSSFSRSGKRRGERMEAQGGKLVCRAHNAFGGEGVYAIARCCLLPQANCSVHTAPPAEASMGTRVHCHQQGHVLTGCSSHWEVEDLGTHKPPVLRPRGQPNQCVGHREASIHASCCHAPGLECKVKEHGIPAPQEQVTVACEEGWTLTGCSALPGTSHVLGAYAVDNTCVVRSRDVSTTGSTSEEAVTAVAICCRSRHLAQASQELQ


How the values were obtained:
[1] = molecular target: T3, Human PCSK9-myc-myc-his (human, UniProt Q8NBP7 31-692); experiment: ELISA, mAb coated, 1.2 nM antigen;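 note: antigen allowed to bind for 1 h at room temperature, then captured protein revealed with an HRP-linked polyclonal anti-myc antibody and read as optical density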
T3 construct: also called hPCSK9-mmh; hPCSK9
Source text: (§1) After 1 hr binding at RT, the plate was washed and bound test protein detected using HRP-conjugated anti-myc polyclonal antibody (++=OD>1.0; +=OD 0.4-1.0; −=OD<0.4).

[2] = molecular target: T1, Chimeric protein #1 …; experiment: ELISA, mAb coated, 1.2 nM antigen;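 note: antigen allowed to bind for 1 h at room temperature, then captured protein revealed with an HRP-linked polyclonal anti-myc antibody and read as optical density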
Source text: as §1

[3] = molecular target: Chimeric protein #2 (hPro-mCat-mC-term-mmh) (human; mouse, UniProt Q80W65 19-694); experiment: ELISA, mAb coated, 1.2 nM antigen;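 note: antigen allowed to bind for 1 h at room temperature, then captured protein revealed with an HRP-linked polyclonal anti-myc antibody and read as optical density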
Source text: as §1

[4] = molecular target: T4, mouse PCSK9, myc-myc-his tagged (mouse, UniProt Q80W65 35-694); experiment: ELISA, mAb coated, 1.2 nM antigen;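 note: antigen allowed to bind for 1 h at room temperature, then captured protein revealed with an HRP-linked polyclonal anti-myc antibody and read as optical density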
T4 construct: also called mPCSK9-mmh; mPCSK9
Source text: as §1

[5] = molecular target: T5, hPCSK9(D374Y)-mmh (human, UniProt Q8NBP7 31-692); experiment: ELISA, mAb coated, 1.2 nM antigen
T5 construct: also called hPCSK(D374Y)-mmh
Source text: as §1

[6] = molecular target: T3, Human PCSK9-myc-myc-his; experiment: SPR, mAb captured, 25C
Procedure: (§2) Each antibody was captured at a flow rate of 4 μl/min for 90 sec on a goat anti-mouse IgG polyclonal antibody surface created through direct chemical coupling to a BIACORE™ chip to form a captured antibody surface.

[7] = molecular target: T3, Human PCSK9-myc-myc-his; experiment: SPR, mAb captured, 37C
Procedure: as §2

[8] = molecular target: T6, tagged rhesus monkey (Macaca mulata) PCSK9 (rhesus monkey (Macaca mulata), UniProt A8T666 31-692); experiment: SPR, 25C
T6 construct: also called mmPCSK9-mmh; mmPCSK9
T6 sequence (A8T666 31-692 limits assumed): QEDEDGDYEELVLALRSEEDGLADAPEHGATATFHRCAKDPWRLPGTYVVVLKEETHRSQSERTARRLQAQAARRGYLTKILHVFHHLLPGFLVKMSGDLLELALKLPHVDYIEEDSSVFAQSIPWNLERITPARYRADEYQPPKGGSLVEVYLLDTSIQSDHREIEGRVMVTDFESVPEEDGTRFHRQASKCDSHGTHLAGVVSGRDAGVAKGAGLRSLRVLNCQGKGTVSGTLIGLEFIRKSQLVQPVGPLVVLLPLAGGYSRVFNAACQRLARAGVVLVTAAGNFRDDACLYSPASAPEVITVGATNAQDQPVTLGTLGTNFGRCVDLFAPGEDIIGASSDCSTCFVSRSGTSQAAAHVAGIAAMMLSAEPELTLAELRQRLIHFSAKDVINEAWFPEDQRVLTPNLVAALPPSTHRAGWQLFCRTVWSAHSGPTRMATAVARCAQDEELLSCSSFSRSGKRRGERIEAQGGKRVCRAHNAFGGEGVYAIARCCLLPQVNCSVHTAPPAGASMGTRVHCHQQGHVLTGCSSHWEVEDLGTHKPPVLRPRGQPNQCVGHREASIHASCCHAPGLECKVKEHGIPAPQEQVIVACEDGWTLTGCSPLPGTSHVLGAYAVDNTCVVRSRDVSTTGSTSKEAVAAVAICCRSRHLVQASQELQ

[9] = molecular target: T2, Chimeric protein #3 …; experiment: ELISA, mAb coated, 1.2 nM antigen
Source text: as §1

[10] = molecular target: T3, Human PCSK9-myc-myc-his; experiment: SPR, mAb captured, 37C; remark: listed apart in the source
Procedure: (§3) Each selected antibody was captured at a flowrate of 2 μl/min for 6 min on a goat anti-human IgG polyclonal antibody surface created through direct chemical coupling to a BIACORE™ chip to form a captured antibody surface.

[11] = molecular target: T3, Human PCSK9-myc-myc-his; experiment: SPR, mAb captured, 25C; remark: listed apart in the source
Procedure: as §3

| Binder | OD [1] [od] | OD [2] [od] | OD [3] [od] | OD [4] [od] | OD [5] [od] | Kd [6] [nM] | T1/2 [6] [min] | Kd [7] [nM] | T1/2 [7] [min] | T1/2 [8] [min] | koff [8] [s⁻¹] | OD [9] [od] | Kd [10] [nM] | T1/2 [10] [min] | Kd [11] [nM] | T1/2 [11] [min] |
| --- | --- | --- | --- | --- | --- | --- | --- | --- | --- | --- | --- | --- | --- | --- | --- | --- |
| H1M300 (antibody, V domains shown, Hybridoma-derived chimeric antibody (human variable, mouse constant)) VH: EMQLVESGGGLVQPGGSLRLSCAASGFTFSSHWMKWVRQAPGKGLEWVANINQDGSEKYYVDSVKGRFTISRDNAKNSLFLQMNSLRAEDTAVYYCARDIVLMVYDMDYYYYGMDVWGQGTTVTVSS VL: not shown | > 1 | > 1 | 0.4 to 1 | < 0.4 | > 1 | 0.399 | 170 | 1.51 | 32 | 76 | 0.000152 |  |  |  |  |  |
| H1M498 (antibody, V domains shown, Hybridoma-derived chimeric antibody (human variable, mouse constant)) VH: EVQLVESGGGLVKPGGSLRLSCAASGFTFSSYSMDWVRQAPGKGLEWVSSISSSSSYIYYADSVKGRFTISRDTAKNSLYLQMNSLRDEDTAVYYCAREGSSRLFDYWGQGTLVTVSS VL: DIQMTQSPSTLSASVGDRVTITCRASQSISSWLAWYQQRPGKAPKLLIYKASSLEGGVPSRFSGSGSGTEFTLTISSLQPEDFATYYCQQYNSYWYTFGQGTKLEIK | > 1 | < 0.4 | < 0.4 | < 0.4 | > 1 | 6.4 | 30 | 7.5 | 14 |  |  | 0.4 to 1 |  |  |  |  |
| H1H317P (antibody, V domains shown, Fully human antibody cloned from B cells, made in CHO cells) VH: EVQLVESGGGLVQPGGSLRLSCAVSGFTLSSYDMHWVRQPTGKGLEWVSAIGSTGDTYYPGSVKGRFTISRENAKNSLYLQMNSLRAGDTAVYYCAREGWDVPFDFWGQGTLVTVSS VL: AIQMTQSPSSLSASVGDRVTITCRASQDIRNDLGWYQQKPGKAPKLLIYAASSLQSGVPSRFSGSGSGTDFTLTISSLQPEDFATYYCLQDYNYPWTFGQGTKVEIK |  |  |  |  |  |  |  |  |  |  |  |  | 18.6 | 70 | 30.4 | 137 |
| H1H315P (antibody, V domains shown, Fully human antibody cloned from B cells, made in CHO cells) VH: QVQLVESGGGVVQPGRSLRLSCAASGFTFSSYGMHWVRQAPGKGLEWVAFIGFDGSNIYYGDSVRGRIIISRDNSENTLYLEMNSLRAEDTAVYYCAREKGLDWGQGTLVTVSS VL: not shown |  |  |  |  |  |  |  |  |  | 51 | 0.000229 |  | 0.413 | 35 | 0.129 | 151 |
| H1H320P (antibody, V domains shown, Fully human antibody cloned from B cells, made in CHO cells) VH: QVQLVQSGAEVKKPGASVKVSCKASGYTFTNYGISWVRQAPGQGLELMGWISGYNGNTNYAQELQARVTMTTDTSTSTAYMELRNLRSDDTAVYYCARDRVVVAAANYYFYSMDVWGQGTTVTVSS VL: DVVMTQSPLSLSVTLGQPASISCRSSQSLVYSDGDTYLNWFQQRPGQSPRRLIYKVSNRDSGVPDRFSGSGSGTAFTLKISGVEAEDVGVYYCMQATHWPRTFGQGTKVEIK | > 1 | < 0.4 | > 1 | < 0.4 | > 1 |  |  |  |  | 36 | 0.000317 | < 0.4 | 1.93 | 8 | 0.771 | 28 |
| H1H318P (antibody, V domains shown, Fully human antibody cloned from B cells, made in CHO cells) VH: QVQLQESGPGLVKPSETLSLTCTVSGDSINTYYWSWFRQPPGKGLEWIGYIYYSGTTNYNPSLKSRVTISIDTPRNQFSLKLISVTAADTAVYYCARERITMIRGVTLYYYSYGMDVWGQGTTVTVSS VL: DIQMTQSPSFLSASVGDRVTITCWASQDISSYLAWYQQKPGIAPKLLIYAASTLQSGVPSRFGGSGSGTEFTLTISSLQPEDFATYYCQQLNSYPRTFGQGTKVEIK | > 1 | > 1 | < 0.4 | < 0.4 | > 1 |  |  |  |  | 3 | 0.00369 | < 0.4 | 1.69 | 28 | 0.972 | 59 |
| H1M495 (antibody, V domains shown, Hybridoma-derived chimeric antibody (human variable, mouse constant)) VH: EVQLVESGGGLVQPGRSLRLSCAASGFTFDDYAMHWVRQAPGKGLEWVSGINWNSGSIGYADSVKGRFTISRDNAKHSLYLQMNSLRPEDTALYYCVKEVTTGYYYGMDVWGQGTTVTVSS VL: DIQLTQSPSFLSASVGDRVTITCWASQGISSYLAWYQKKPGKAPNLLIYDASTLQSGVPSRFSGSGSGTEFTLTLSSLQPEDFATYYCQQLNIYPFTFGPGTKVDIK | > 1 | < 0.4 | < 0.4 | < 0.4 | > 1 | 0.44 | 222 | 7.5 | 19 |  |  | > 1 |  |  |  |  |
| H1H321P (antibody, V domains shown, Fully human antibody cloned from B cells, made in CHO cells) VH: QITLKESGPTLVKPTQTLTLTCTFSGFSLITSGVGVGWIRQPPGKALEWLALIYWNGDKRYSPSLKSRLTITKDTSKNQVVLTMTNMDPVDTATYYCAHRITETSYYFYYGMDVWGQGTTVTVSS VL: not shown |  |  |  |  |  |  |  |  |  |  |  |  | 3.36 | 23 | 0.865 | 106 |
| H1H334P (antibody, V domains shown, Fully human antibody cloned from B cells, made in CHO cells) VH: QITLKESGPTLVKPSQTLTLTCTFSGFSLSTSGVGVGWIRQPPGKALEWLALIYWNSDKRYSPSLKSRLTITKDTSKNQVVLTMTNMDPVDTATYYCAHRHDSSSYYFYYGMDVWGQGTTVTVSS VL: not shown | > 1 | > 1 | < 0.4 | < 0.4 | > 1 |  |  |  |  | 1 | 0.00806 | < 0.4 | 15.9 | 8 | 3.75 | 46 |
